Test results from the supplement of paper PMC7877785.
± gives the uncertainty stated by the source.

Test: self-splicing fitness, log relative to wild type (ln ratio); higher = more splicing; Tetrahymena group I intron in knt gene, E. coli kanamycin selection, DiMSum; sequences stand for … in CUCUCU…GGAGGGAAAAGUUAUCAGGCAUGCACCUGGUAGCUAGUCUUUAAACCAAUAGAUUGCAUCGGUUUAAAAGGCAAGACCGUCAAAUUGCGGGAAAGGGGUCAACAGCCGUUCAGUACCAAGUCUCAGGGGAAACUUUGAGAUGGCCUUGCAAAGGGUAUGGUAAUAAGCUGACGGACAUGGUCCUAACCACGCAGCCAAGUCCUAAGUCAACAGAUCUUCUGUUGAUAUGGAUGCAGUUCACAGACUAAAUGUCGGUCGGGGAAGAUGUAUUCUUCUCAUAAGAUAUAGUCGGACCUCUCCUUAAUGGGAGCUAGCGGAUGAAGUGAUGCAACACUGGAGCCGCUGGGAACUAAUUUGUAUGCGAAAGUAUAUUGAUUAGUUUUGGAGUACUCGUGGUCG
Summary of the method: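 Colonies from six replicate transformations of E. coli BL21(DE3) were pooled and amplicon-sequenced on an Illumina HiSeq 2500. The library placed an intron with all eight P1ex-region nucleotides randomised inside the knt kanamycin-resistance gene on pET-22b(+), and cells grew overnight at 37°C or 30°C on LB agar with or without 25 μg/mL kanamycin (plus 100 μg/mL carbenicillin, 50 μM IPTG, 0.2% rhamnose). Fitness is the DiMSum error-weighted combination of wild-type-normalised replicate fold changes, kanamycin versus none.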

Row | Sequence | self-splicing fitness (ln) (30 °C) | self-splicing fitness (ln) (37 °C)
1 | CGGCAGCAAUAUUACGGUGU | -4.04 ± 0.2 | -2.55 ± 0.17
2 | CGGCAGCAAUAUUACGUAGU | -3.77 ± 0.21 | -0.852 ± 0.12
3 | CGGCAGCAAUAUUACGUAUA | -3.35 ± 0.27 | -2.8 ± 0.23
4 | CGGCAGCAAUAUUACGUCCU | 0.101 ± 0.067 | 0.44 ± 0.092
5 | CGGCAGCAAUAUUACGUCGG | -1.42 ± 0.079 | -0.417 ± 0.098
6 | CGGCAGCAAUAUUACGUGCC | -2.66 ± 0.28 | 
7 | CGGCAGCAAUAUUACGUGUG | -1.09 ± 0.036 | -0.654 ± 0.05
8 | CGGCAGCAAUAUUACGUGUU | -3.41 ± 0.13 | -1.95 ± 0.13
9 | CGGGAGCAAUAUUACGAGUU | -3.12 ± 0.27 | -2.59 ± 0.36
10 | CGGGAGCAAUAUUACGAUAG |  | -1.97 ± 0.37
11 | CGGGAGCAAUAUUACGAUCC | -3.35 ± 0.21 | -1.68 ± 0.22
12 | CGGGAGCAAUAUUACGAUUU | -3.64 ± 0.33 | -1.2 ± 0.24
13 | CGGGAGCAAUAUUACGCCUG | -2.39 ± 0.28 | 
14 | CGGGAGCAAUAUUACGCGAU |  | -1.6 ± 0.41
15 | CGGGAGCAAUAUUACGCGUG | -3.47 ± 0.18 | -1.65 ± 0.13
16 | CGGGAGCAAUAUUACGGCGG | -1.17 ± 0.11 | -1.09 ± 0.19
17 | CGGGAGCAAUAUUACGGGAA |  | -1.85 ± 0.41
18 | CGGGAGCAAUAUUACGGGGC |  | -2.14 ± 0.43
19 | CGGGAGCAAUAUUACGGGUC |  | -2.97 ± 0.48
20 | CGGGAGCAAUAUUACGGGUU | -2.34 ± 0.32 | -2.53 ± 0.26
21 | CGGGAGCAAUAUUACGGUAA | -3.01 ± 0.34 | -1.13 ± 0.21
22 | CGGGAGCAAUAUUACGGUGA | -2.3 ± 0.33 | 
23 | CGGGAGCAAUAUUACGGUGC | -3.21 ± 0.49 | 
24 | CGGGAGCAAUAUUACGUGAA |  | -2.15 ± 0.3
25 | CGGGAGCAAUAUUACGUGAC | -2.16 ± 0.32 | -2.9 ± 0.44
26 | CGGGAGCAAUAUUACGUGCG | -2.41 ± 0.46 | -1.33 ± 0.43

Row | Sequence | self-splicing fitness (ln) (30 °C) | self-splicing fitness (ln) (37 °C)
27 | CGGGAGCAAUAUUACGUUAU | -2.65 ± 0.26 | -3.21 ± 0.47
28 | CGGUAGCAAUAUUACGACGA | -1.46 ± 0.19 | 0.22 ± 0.17
29 | CGGUAGCAAUAUUACGAGUC | -2.07 ± 0.43 | 
30 | CGGUAGCAAUAUUACGCAAA |  | -1.6 ± 0.42
31 | CGGUAGCAAUAUUACGCAGA | -1.8 ± 0.29 | -1.91 ± 0.2
32 | CGGUAGCAAUAUUACGCAUC |  | -2.58 ± 0.21
33 | CGGUAGCAAUAUUACGCUAG | -2.28 ± 0.34 | -0.219 ± 0.24
34 | CGGUAGCAAUAUUACGCUGC |  | -2.17 ± 0.49
35 | CGGUAGCAAUAUUACGCUGU | -3.2 ± 0.23 | -3.02 ± 0.37
36 | CGGUAGCAAUAUUACGGAAU |  | -1.93 ± 0.47
37 | CGGUAGCAAUAUUACGGAUA |  | -1.54 ± 0.3
38 | CGGUAGCAAUAUUACGGCCA | 0.0804 ± 0.18 | -0.151 ± 0.24
39 | CGGUAGCAAUAUUACGGCGA | -2.69 ± 0.27 | -2.13 ± 0.26
40 | CGGUAGCAAUAUUACGGGCC | -3.47 ± 0.36 | 
41 | CGGUAGCAAUAUUACGGUAC |  | -1.22 ± 0.42
42 | CGGUAGCAAUAUUACGGUCG | -2.62 ± 0.21 | -1.65 ± 0.25
43 | CGGUAGCAAUAUUACGUAUA | -3.71 ± 0.24 | -2.53 ± 0.18
44 | CGGUAGCAAUAUUACGUAUC | -2.67 ± 0.15 | -2.83 ± 0.29
45 | CGGUAGCAAUAUUACGUCAC | -2.59 ± 0.34 | -1.82 ± 0.48
46 | CGGUAGCAAUAUUACGUCUU | -0.667 ± 0.1 | 0.17 ± 0.12
47 | CGGUAGCAAUAUUACGUGAC |  | -2.73 ± 0.41
48 | CGGUAGCAAUAUUACGUGGA | -4.03 ± 0.27 | -2.26 ± 0.17
49 | CGGUAGCAAUAUUACGUUCC | -4.16 ± 0.33 | -1.9 ± 0.26
50 | CGGUAGCAAUAUUACGUUGC | -2.1 ± 0.14 | -2.85 ± 0.33
51 | CGGUAGCAAUAUUACGUUUG | -0.275 ± 0.082 | -0.027 ± 0.098
52 | CGUAAGCAAUAUUACGAAAU | -3.16 ± 0.27 | -1.86 ± 0.25

Row | Sequence | self-splicing fitness (ln) (30 °C) | self-splicing fitness (ln) (37 °C)
53 | CGUAAGCAAUAUUACGAGCU | -3.7 ± 0.37 | -2.53 ± 0.41
54 | CGUAAGCAAUAUUACGAGUC | -2.82 ± 0.4 | -1.92 ± 0.34
55 | CGUAAGCAAUAUUACGCGAG | -1.63 ± 0.2 | -2.56 ± 0.44
56 | CGUAAGCAAUAUUACGCUGG | -1.56 ± 0.12 | -0.793 ± 0.11
57 | CGUAAGCAAUAUUACGCUUU | -3.21 ± 0.23 | -2.31 ± 0.2
58 | CGUAAGCAAUAUUACGGCCC |  | -1.43 ± 0.3
59 | CGUAAGCAAUAUUACGUAGU | -3.74 ± 0.27 | -1.48 ± 0.18
60 | CGUAAGCAAUAUUACGUGAU | -3.93 ± 0.31 | -2.57 ± 0.24
61 | CGUAAGCAAUAUUACGUGCU | -3.24 ± 0.21 | -1.94 ± 0.21
62 | CGUCAGCAAUAUUACGAAGA | -2.26 ± 0.19 | -2.09 ± 0.23
63 | CGUCAGCAAUAUUACGACAC | -1 ± 0.14 | 0.484 ± 0.13
64 | CGUCAGCAAUAUUACGACUU | -0.191 ± 0.069 | 0.132 ± 0.08
65 | CGUCAGCAAUAUUACGAGUG | -0.944 ± 0.056 | -0.00372 ± 0.077
66 | CGUCAGCAAUAUUACGAUCU | -1.09 ± 0.086 | -0.0587 ± 0.11
67 | CGUCAGCAAUAUUACGAUUC | -0.695 ± 0.096 | 0.147 ± 0.087
68 | CGUCAGCAAUAUUACGAUUG | -0.506 ± 0.076 | -0.162 ± 0.084
69 | CGUCAGCAAUAUUACGCAGC | -3.34 ± 0.2 | -2.26 ± 0.19
70 | CGUCAGCAAUAUUACGCCCA | -0.52 ± 0.12 | -0.0594 ± 0.14
71 | CGUCAGCAAUAUUACGCGGU | -2.93 ± 0.16 | -2.27 ± 0.19
72 | CGUCAGCAAUAUUACGGAAC | -2.22 ± 0.27 | -2.61 ± 0.25
73 | CGUCAGCAAUAUUACGGGGG | -3.62 ± 0.2 | -2.05 ± 0.14
74 | CGUCAGCAAUAUUACGGUAA | -1.1 ± 0.26 | -1.3 ± 0.23
75 | CGUCAGCAAUAUUACGGUGU | -2.66 ± 0.12 | -0.454 ± 0.1
76 | CGUCAGCAAUAUUACGUAAA | -1.97 ± 0.06 | -1.21 ± 0.097
77 | CGUCAGCAAUAUUACGUAUA |  | -0.724 ± 0.16
78 | CGUCAGCAAUAUUACGUGAG | -0.162 ± 0.04 | -0.124 ± 0.061

Row | Sequence | self-splicing fitness (ln) (30 °C) | self-splicing fitness (ln) (37 °C)
79 | CGUCAGCAAUAUUACGUUAA | -3.28 ± 0.17 | -2.38 ± 0.14
80 | CGUCAGCAAUAUUACGUUUA | -2.93 ± 0.18 | -1.66 ± 0.16
81 | CGUCAGCAAUAUUACGUUUG | -1.14 ± 0.062 | -0.102 ± 0.079
82 | CGUGAGCAAUAUUACGAACC | -1.44 ± 0.18 | -0.0387 ± 0.24
83 | CGUGAGCAAUAUUACGAACU | -2.23 ± 0.3 | -0.177 ± 0.29
84 | CGUGAGCAAUAUUACGAAGA | -1.53 ± 0.37 | 
85 | CGUGAGCAAUAUUACGAGGG | -3.77 ± 0.3 | -2.36 ± 0.25
86 | CGUGAGCAAUAUUACGCAGU | -3.4 ± 0.41 | -2.03 ± 0.44
87 | CGUGAGCAAUAUUACGCGAG | -1.12 ± 0.21 | 
88 | CGUGAGCAAUAUUACGGAGG | -2.69 ± 0.17 | -0.9 ± 0.14
89 | CGUGAGCAAUAUUACGGGAU | -3.49 ± 0.22 | -2.24 ± 0.21
90 | CGUGAGCAAUAUUACGGGUG | -0.878 ± 0.067 | -0.658 ± 0.078
91 | CGUGAGCAAUAUUACGGUCC | -3.39 ± 0.24 | -1.69 ± 0.24
92 | CGUGAGCAAUAUUACGGUGG | -2.03 ± 0.082 | -1.35 ± 0.1
93 | CGUGAGCAAUAUUACGGUUG | -1.49 ± 0.07 | -0.412 ± 0.094
94 | CGUGAGCAAUAUUACGUGGA | -3.06 ± 0.15 | -2.11 ± 0.14
95 | CGUUAGCAAUAUUACGACAU | -1.529 ± 0.015 | -0.592 ± 0.033
96 | CGUUAGCAAUAUUACGCGCU | -1.9 ± 0.2 | -1.73 ± 0.17
97 | CGUUAGCAAUAUUACGCGUC | -3.47 ± 0.23 | 
98 | CGUUAGCAAUAUUACGGCUA | -2.27 ± 0.37 | 
99 | CGUUAGCAAUAUUACGGCUU | -0.864 ± 0.16 | -2.39 ± 0.31
100 | CGUUAGCAAUAUUACGGGCA | -0.756 ± 0.15 | -1.2 ± 0.11
101 | CGUUAGCAAUAUUACGGGUU | -3.4 ± 0.24 | -2.42 ± 0.25
102 | CGUUAGCAAUAUUACGGUGA | -2.76 ± 0.21 | -0.883 ± 0.16
103 | CGUUAGCAAUAUUACGUCUA | -3 ± 0.28 | -2.33 ± 0.24
